Measured values published in patent publication US20230079150A1, “METHODS FOR PREVENTION OR TREATMENT OF VIRUS-INDUCED ORGAN INJURY OR FAILURE WITH IL-22 DIMER” (priority 2020, published 2023).

Experiments:
[1] = tested on: H1N1 influenza (A/PR8 strain); type: in vivo, C57BL/6 mice
[2] = tested on: H1N1 influenza (A/PR8 strain); type: in vivo, C57BL/6 mice; conditions: aged mice; data not shown
C57BL/6 mice = assay: LPS acute lung injury mouse model: BAL inflammatory mediators (Milliplex cytokine panel); type: in vivo; conditions: day 4
Protocol: After approval from the Tulane University, Institutional Animal Care and Use Committee (protocol ID 607), equal numbers of male and female, 6-8 week old C57BL/6 mice (Charles River Laboratories, Cambridge, Mass.) were given acute lung injury (ALI) via intra-tracheally administered LPS. After obtaining appropriate depth of anesthesia using isoflurane, the high-dose LPS group (HDG) received 100 μg of LPS administered intra-tracheally. Approximately 30 minutes after LPS administration, 4 μg of F-652 was administered via tail vein injection (n=11), then compared to animals receiving sham injection (n=8) with phosphate-buffered saline (PBS). In the low-dose LPS group (LDG), 33.3 μg of LPS was administered intra-tracheally. F-652 was again administered at 30 minutes (n=9) and compared to sham injected animals (n=9). The Interleukin-22:Fc (F-652) protein is a recombinant fusion protein (F-652) (Evive Biotech, Shanghai, China) with two human IL-22 molecules linked to the Fc portion of human immunoglobulin G2, which extends the half-life of the molecule.
Euthanasia and bronchoalveolar lavage (BAL) was carried out on post-injury day 4. After obtaining appropriate levels of anesthesia with inhaled isoflurane, the trachea was cannulated using a 26 gauge needle and BAL was performed with three successive washes using 1 mL of PBS. Next, a small segment of the left lower lobe was removed and saved for RNA isolation. Finally, 1 cc of 4% paraformaldehyde was injected to the lung for fixation.
The BAL fluid was then centrifuged at 500×gravity for 5 minutes. Cells were obtained from the BAL after centrifuge and cell counts performed. Cells were then affixed to glass slides and stained with Wright's stain. To quantify protein in the BAL supernatant, a Bradford protein assay (Bio-Rad Laboratories) was performed. Protein was quantified by measuring absorbance at 595 nm on a BMG Labtech FLUOstar Optima plate reader. In addition, the BAL supernatant was used to measure pro-inflammatory cytokines using a Milliplex Mouse Cytokine/Chemokine Magnetic Bead Panel (Millipore Sigma). The 32 cytokines measured included Eotaxin, Granulocyte Colony-Stimulating Factor (G-CSF), Granulocyte-Monocyte Colony-Stimulating Factor (GM-CSF), Interferon-γ (IFN-γ), Interleukin-1α (IL-1α), IL-1, IL-2, IL-3, IL-4, IL-5, IL-6, IL-7, IL-9, IL-10, IL-12 (p40 segment), IL-12 (p70 segment), IL-13, IL-15, IL-17, Interferon-γ induced protein 10 (IP-10), keratinocyte chemoattractant (KC), leukemia inhibitory factor (LIF), lipopolysaccharide-induced CXC chemokine (LIX), monocyte chemoattractant protein-1 (MCP-1), macrophage colony-stimulating factor (M-CSF), monokine induced by gamma-interferon (MIG), MIP-1α, macrophage inflammatory protein-1β/CCL4 (MIP-1β), MIP-2, regulated upon activation, normal T-cell expressed and presumably secreted (RANTES), tumor necrosis factor-α (TNF-α), vascular endothelial growth factor (VEGF). Human IL-22 was measured using an IL-22 Human ELISA kit (ThermoFisher Scientific). Mouse IL-22 was measured using an IL-22 Mouse/Rat Quantikine ELISA kit (R&D Systems).

B1: F-652: recombinant IL-22 dimer consisting of two monomeric subunits each comprising a sequence shown in SEQ ID NO: 24 (protein)
chain 1: APISSHCRLDKSNFQQPYITNRTFMLAKEASLADNNTDVRLIGEKLFHGVSMSERCYLMKQVLNFTLEEVLFPQSDRFQPYMQEVVPFLARLSNRLSTCHIEGDDLHIQRNVQKLKDTVKKLGESGEIKAIGELDLLFMSLRNACIGSGGGSGGGGSGGGGSVECPPCPAPPVAGPSVFLFPPKPKDTLMISRTPEVTCVVVDVSHEDPEVQFNWYVDGVEVHNAKTKPREEQFNSTFRVVSVLTVVHQDWLNGKEYKCKVSNKGLPASIEKTISKTKGQPREPQVYTLPPSREEMTKNQVSLTCLVKGFYPSDIAVEWESNGQPENNYKTTPPMLDSDGSFFLYSKLTVDKSRWQQGNVFSCSVMHEALHNHYTQKSLSLSPGK
chain 2: B1 chain 1
modifications: homodimer
In the case of B1, the “tissue dampening (G) by FOT” value ([1]; aged H1N1 infected mice, baseline/tidal breathing, 3-week treatment) is reported as “less resistance in small airways”, the “static compliance (Cst) from PV loops relative to PBS controls” value ([1]; aged mice) is reported as “increased static compliance” and the “impedance following maximization of available lung volume” value ([1]; following airway recruitment maneuver, aged and young) is reported as “has no effect”. For the same molecule, the “CD8+ cells and KRT5+ cells in lungs compared to PBS control” value [2] was “clear trend of decrease”, the “C-X-C Motif Chemokine 5 (LIX) in BAL” value (C57BL/6 mice; high dose LPS, F-652 4 μg i.v.) was 0.00 ± 0.00 pg/mL and the “Eotaxin in BAL” value (C57BL/6 mice; high dose LPS, F-652 4 μg i.v.) was 4.63 ± 2.43 pg/mL. The “Granulocyte-Macrophage Colony-Stimulating Factor in BAL” value (C57BL/6 mice; high dose LPS, F-652 4 μg i.v.) was 0.00 ± 0.00 pg/mL, the “Interferon-γ in BAL” value (C57BL/6 mice; high dose LPS, F-652 4 μg i.v.) was 8.08 ± 2.18 pg/mL and the “Interferon-γ-Induced Protein-10 in BAL” value (C57BL/6 mice; high dose LPS, F-652 4 μg i.v.) was 118.40 ± 43.72 pg/mL. The “Interleukin-1α in BAL” value (C57BL/6 mice; high dose LPS, F-652 4 μg i.v.) was 69.39 ± 5.91 pg/mL, the “Interleukin-1β in BAL” value (C57BL/6 mice; high dose LPS, F-652 4 μg i.v.) was 3.48 ± 1.25 pg/mL and the “Interleukin-2 in BAL” value (C57BL/6 mice; high dose LPS, F-652 4 μg i.v.) was 7.33 ± 0.83 pg/mL. The “Interleukin-3 in BAL” value (C57BL/6 mice; high dose LPS, F-652 4 μg i.v.) was 1.07 ± 0.02 pg/mL, the “Interleukin-4 in BAL” value (C57BL/6 mice; high dose LPS, F-652 4 μg i.v.) was 1.09 ± 0.09 pg/mL and the “Interleukin-5 in BAL” value (C57BL/6 mice; high dose LPS, F-652 4 μg i.v.) was 7.86 ± 1.14 pg/mL. The “Interleukin-7 in BAL” value (C57BL/6 mice; high dose LPS, F-652 4 μg i.v.) was 1.75 ± 0.18 pg/mL, the “Interleukin-9 in BAL” value (C57BL/6 mice; high dose LPS, F-652 4 μg i.v.) was 311.8 ± 38.17 pg/mL and the “Interleukin-12 (p40) in BAL” value (C57BL/6 mice; high dose LPS, F-652 4 μg i.v.) was 7.13 ± 1.89 pg/mL. For the same molecule, the “Interleukin-12 (p70) in BAL” value (C57BL/6 mice; high dose LPS, F-652 4 μg i.v.) was 1.95 ± 1.00 pg/mL, the “Interleukin-13 in BAL” value (C57BL/6 mice; high dose LPS, F-652 4 μg i.v.) was 10.56 ± 1.49 pg/mL and the “Interleukin-15 in BAL” value (C57BL/6 mice; high dose LPS, F-652 4 μg i.v.) was 6.10 ± 1.02 pg/mL. The “Interleukin-17 in BAL” value (C57BL/6 mice; high dose LPS, F-652 4 μg i.v.) was 2.28 ± 0.56 pg/mL, the “Keratinocyte Chemoattractant/Growth Regulated Oncogene in BAL” value (C57BL/6 mice; high dose LPS, F-652 4 μg i.v.) was 19.54 ± 3.08 pg/mL and the “Macrophage Colony-Stimulating Factor in BAL” value (C57BL/6 mice; high dose LPS, F-652 4 μg i.v.) was 2.89 ± 1.02 pg/mL. For the same molecule, the “Macrophage Inflammatory Protein-1α in BAL” value (C57BL/6 mice; high dose LPS, F-652 4 μg i.v.) was 45.99 ± 7.56 pg/mL, the “Macrophage Inflammatory Protein-1β in BAL” value (C57BL/6 mice; high dose LPS, F-652 4 μg i.v.) was 19.42 ± 7.63 pg/mL and the “Macrophage Inflammatory Protein-2 in BAL” value (C57BL/6 mice; high dose LPS, F-652 4 μg i.v.) was 28.63 ± 5.43 pg/mL. The “Monocyte Chemoattractant Protein in BAL” value (C57BL/6 mice; high dose LPS, F-652 4 μg i.v.) was 14.66 ± 7.16 pg/mL, the “Monocyte Induced by Interferon-γ in BAL” value (C57BL/6 mice; high dose LPS, F-652 4 μg i.v.) was 100.60 ± 35.47 pg/mL and the “Vascular Endothelial Growth Factor in BAL” value (C57BL/6 mice; high dose LPS, F-652 4 μg i.v.) was 12.18 ± 3.03 pg/mL. For the same molecule, the “Interleukin-10 level in BAL fluid” value (C57BL/6 mice; high-dose LPS, F-652 4 μg tail vein, sham 4.05) was 22.10 pg/mL, the “TNF-α level in BAL fluid” value (C57BL/6 mice; high-dose LPS, F-652 4 μg tail vein, sham 25.41) was 5.87 pg/mL and the “IL-6 level in BAL fluid” value (C57BL/6 mice; high-dose LPS, F-652 4 μg tail vein, sham 527.1) was 110.6 pg/mL. The “G-CSF level in BAL fluid” value (C57BL/6 mice; high-dose LPS, F-652 4 μg tail vein, sham 659.6) was 95.14, the “C-X-C Motif Chemokine 5 (LIX) in BAL” value (C57BL/6 mice; low dose LPS, F-652 4 μg i.v.) was 9.27 ± 6.04 pg/mL and the “Eotaxin in BAL” value (C57BL/6 mice; low dose LPS, F-652 4 μg i.v.) was 2.59 ± 1.93 pg/mL. For the same molecule, the “Granulocyte Colony-Stimulating Factor in BAL” value (C57BL/6 mice; low dose LPS, F-652 4 μg i.v.) was 23.49 ± 9.15 pg/mL.
